Consider 19 molecules from paper PMC9597381, “Molecular determinants of TRAF6 binding specificity suggest that native interaction partners are not optimized for affinity” (Protein Science : A Publication of the Protein Society, 2022).

Values joined by “and” are separate entries in the source; they are usually repeats but may differ in a detail not shown here. Equal entries are not always repeated.

To fix the notation:
T1: TRAF6 trimeric construct T6cc (coiled-coil and MATH domains) (human, UniProt Q9Y4K3 310-504, biotin on the BAP tag)
T1 chain: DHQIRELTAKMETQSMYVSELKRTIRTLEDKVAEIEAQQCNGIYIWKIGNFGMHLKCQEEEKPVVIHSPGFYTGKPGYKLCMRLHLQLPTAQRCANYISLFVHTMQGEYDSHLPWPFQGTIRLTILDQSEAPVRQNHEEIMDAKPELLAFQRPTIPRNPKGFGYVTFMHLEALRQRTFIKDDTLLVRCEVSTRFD

T2: monomeric TRAF6 (T6m), TRAF6 MATH domain (Homo sapiens, UniProt Q9Y4K3)
T2 construct: (human TRAF6 residues 350-501) – LE – HHHHHH; made in house; host or cells: E. coli Rosetta2(DE3)
T2 sequence (Q9Y4K3 350-501): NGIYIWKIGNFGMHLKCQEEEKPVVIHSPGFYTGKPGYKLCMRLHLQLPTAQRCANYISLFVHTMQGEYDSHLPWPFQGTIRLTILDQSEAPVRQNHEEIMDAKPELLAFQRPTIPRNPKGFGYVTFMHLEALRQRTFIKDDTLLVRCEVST

T3: TRAF6 trimeric construct T6cc (coiled-coil and MATH domains) (human, UniProt Q9Y4K3 310-504, biotin on the BAP tag)
T3 construct: human TRAF6, residues 310-504, including the coiled-coil trimerization domain and the MATH domain; Expressed from a pDW363 vector; Concentrations of T6cc are reported as monomer concentrations; also called trimeric TRAF6; biotinylated TRAF6 homotrimers; source: E. coli BL21(DE3), co-expressed with BirA, purified (Ni-NTA, gel filtration); not shown: BAP tag, N-terminal, kept
T3 sequence (looked up): T1 chain

B1: CD40* peptide (KQEPQEIDF with 8 flanking CD40 residues on each side) displayed on E. coli via eCPX (peptide)
peptide: PTNKAPHPKQEPQEIDFPDDLPGSNT
notes: 9 residues resolved in PDB 1LB6 plus 8 flanking residues on each side; also called KQEPQEIDF (CD40*); not shown: eCPX (re-engineered OmpX), N-terminal, kept; FLAG, N-terminal, kept
B2: TRAF6 trimeric construct T6cc (coiled-coil and MATH domains) (domain or fragment)
chain: T1 chain
modifications: biotin on the BAP tag
B3: TRAF6 monomeric MATH domain construct T6m (domain or fragment)
chain: T2 sequence (Q9Y4K3 350-501)

The target of one experiment is T1, TRAF6 trimeric construct T6cc …. Briefly: FACS; apparent Kd*, cell-surface display.
Conditions: not given
In general terms: Flow cytometry measures light scatter and fluorescence of single cells or particles in a stream.
Take GKYPEENDW: the Kd stood at 240 nM.
As for TYGPVENSW, the Kd was determined as 581 nM.
In the case of PQDPVETFW, the Kd stood at 374 nM.
On the same count and under the same terms, the figure for QNLPTESDW is 45.2 nM; for HNIPTETSW it is 186 nM; for TRMPVESDW it is 169 nM.
Still for that read-out and setting: the figure for SPVPEESTW is 332 nM; for LQLPEENDW it is 498 nM; for RNVPEEIYW it is 260 nM.
With RNWPTETDW, the Kd was found to be 58.3 nM.
Turning to MNAPVESDW, the Kd is 110 nM.

The target is the same in another experiment. Description: FACS.
Conditions: not given
In turn, GKYPEENDW showed a Kd of 240 nM.
In turn, TYGPVENSW registered a Kd of 581 nM.
PQDPVETFW gave a Kd of 374 nM.
Consider QNLPTESDW, for which the Kd worked out at 45.2 nM.
HNIPTETSW: the Kd was determined as 186 nM.
Regarding TRMPVESDW, the Kd amounted to 169 nM.
In turn, SPVPEESTW registered a Kd of 332 nM.
Still for that read-out and setting: the figure for LQLPEENDW is 498 nM; for RNVPEEIYW it is 260 nM; for RNWPTETDW it is 58.3 nM.
With MNAPVESDW, the Kd came out at 110 nM.

The next experiment has as its target TRAF6.
Test: not given
Conditions: reported affinity for TRAF6, ITC; read-out: Kd by isothermal titration calorimetry; cited from earlier work. An excerpt:
High‐affinity TRAF6 binders isolated in this work can serve as lead peptides for inhibitor development. TRAF6 signaling is implicated in inflammation and cardiovascular disease.[12], [13], [18] Targeting TRAF6 MATH is reported to improve insulin sensitivity in obese mice, improve heart function in mouse models of non‐ischemic cardiac failure, reduce atherosclerosis, and inhibit osteoclastogenesis and bone resorption.[14], [15], [16], [17] A RANK peptide attached to a protein transduction sequence to promote cell entry is currently sold commercially as a TRAF6 inhibitor (e.g., Novus Biologicals ...
On the technique in general: In ITC the heat of successive injections is recorded.
Regarding KQEPQEIDF [CD40*, reference compound], the Kd is 84000 nM.

The next experiment concerns the target T2, monomeric TRAF6 (T6m), TRAF6 MATH domain. Briefly: Biolayer interferometry (BLI), SUMO-peptide on tip, TRAF6 monomer in solution. Particulars: biotinylated SUMO-peptide on streptavidin tip, T6m in solution up to 150 μM; 20 mM Tris pH 8.0, 207 mM NaCl; room temperature; steady-state fit; average of 3 replicate binding curves ± SEM. An excerpt:
To further validate the cell‐surface interactions identified in the screen, we measured TRAF6‐peptide binding by biolayer interferometry (BLI), using purified monomeric TRAF6 MATH domain (construct termed T6m) in solution and purified peptides attached to the sensor tip (see Table S1 for construct details). […] The BLI data validate the cell‐surface display results and support the conclusion that top hits from the screen bind with higher affinity than CD40*, which is one of the tightest known TRAF6 peptide binders[19] (Figure 3). Based on these observations, we conclude that despite the screening assay being performed in the environment of the cell surface, and in a multi‐valent context, enrichment sorting returned high‐affinity binders.
Vectors, bacterial cells, and cloning: The expression constructs and cell surface display constructs are detailed in Table S1. The TRAF6 trimeric construct, here termed T6cc, consisted of residues 310–504 of human TRAF6 (including the MATH domain and coiled‐coil trimerization domain), an N‐terminal BAP tag for biotinylation, and a hexahistidine tag for purification. The construct was expressed using a pDW363 vector to ensure biotinylation. A monomeric TRAF6 construct lacking the trimerization domain and BAP tag, here termed T6m, consisted of residues 350–501 of human TRAF6 and a hexahistidine tag. The construct was expressed in a pDW363 vector, although the lack of a BAP tag ensured no biotinylation of this protein. SUMO‐peptide fusion constructs contained a BAP tag, hexahistidine tag, and SUMO tag. The construct was expressed in a pDW363 vector to ensure biotinylation. E. coli strains BL21(DE3), DH5α, and MC1061 were used for protein expression, cloning, and surface display, respectively. For bacterial surface display of TRAF6‐binding peptides, the eCPX vector designed by the Daugherty group[56] was modified at the C‐terminus to append a FLAG sequence, a linker containing a SfiI site, and the CD40* peptide sequence, which included 9 residues resolved in the X‐ray structure of CD40* bound to TRAF6 (PDB ID: 1LB6[19]) plus 8 flanking residues on each side of this core region. The CD40*‐derived sequence used was […].
Protein purification and preparation: T6cc was co‐expressed with the biotin ligase BirA (from the pDW363 vector) in BL21(DE3) E. coli for 5 hours at 37°C. Media was supplemented with 0.05 mM D‐(+)‐biotin. The protein was then purified using Ni^2+‐NTA affinity chromatography followed by gel‐filtration chromatography into a final buffer of 20 mM Tris pH 8.0, 150 mM NaCl, 5% glycerol, 1 mM DTT. Purified protein was concentrated before storing at −80°C in aliquots for later use. Concentrations of T6cc are reported as monomer concentrations. […]
On the technique in general: BLI is a label-free optical method that tracks binding on a fibre tip over time.
The molecule KQEPQEIDF [CD40*, reference compound] returned a Kd of 240000 ± 23000 nM.
The molecule TNWPEENDW yielded a Kd of 37200 nM.
On the same count and under the same terms, the value for LNLPEESDW was 27500 nM; that for RNVPEESDW was 24000 ± 3800 nM.

The next experiment deals with T3, TRAF6 trimeric construct T6cc …. Description: flow cytometry on cells; single-clone titration: biotinylated T6cc (0 nM to 3 uM, eight concentrations) on peptide-displaying E. coli, 4°C 60 min in PBS + BSA, detected with streptavidin-PE; apparent cell-surface constant Kd*, multivalent, not likely at equilibrium. Particulars: one partner purified.
On to B1, for which the Kd was 1200 nM.

The target of a further experiment is RANK peptide (Homo sapiens). Briefly: ITC. Particulars: cited from earlier work.
As for TRAF6 (from UniProt Q9Y4K3), the Kd is 78000 nM.

Another experiment deals with … peptide displayed on E. coli via eCPX (human). Description: flow cytometry on cells; single-clone titration: biotinylated T6cc (0 nM to 3 uM, eight concentrations) on peptide-displaying E. coli, 4°C 60 min in PBS + BSA, detected with streptavidin-PE; apparent cell-surface constant Kd*, multivalent, not likely at equilibrium.
Conditions: not given
On to B2, for which the Kd is 84 nM and 46 nM and 31 nM.

In a further experiment the target is biotinylated SUMO-peptide fusion of …. Briefly: BLI; biotinylated SUMO-peptides immobilised on streptavidin tips, T6m in solution; room temperature; 20 mM Tris pH 8.0, 207 mM NaCl, 1 mM DTT, 1% glycerol, 0.1% BSA, 0.1% Tween-20; steady-state fit, SUMO-only control subtracted.
Conditions: not given
Regarding B3, the Kd was 37000 nM and 28000 nM and 24000 nM.

A further experiment concerns the target biotinylated SUMO-peptide fusion of CD40* (…) (human). Described as above.
Conditions: not given
On to B3, for which the Kd was found to be 240000 nM.
